Measurements from patent US20180280504A1, “GLYCAN-INTERACTING COMPOUNDS AND METHODS OF USE” (SIAMAB THERAPEUTICS, INC., priority 2014, published 2018).

Columns and labels:
[1] = Glycan array, 9-O-acetylated AcSTn; assay type: binding; conditions: glycan microarray, Cy3 anti-mouse IgG
Method: Optimized glycan arrays comprise 71 chemically synthesized and well-defined glycans, most of which comprise Neu5Ac and Neu5Gc glycan pairs.
300 ml of epoxy blocking buffer is prepared by combining 15 ml of 2 M Tris buffer (pH 8) with 0.9 ml of 16.6 M ethanolamine and 284.1 ml of distilled water. The solution was brought to a final pH of 9.0 with HCl. The solution is filtered using a 0.2 μM nitrocellulose membrane. The epoxy buffer solution as well as 1 L of distilled water are pre-warmed to 50° C. Glass slides are arranged in a slide holder and quickly submerged in a staining tub with the warmed epoxy blocking buffer. Slides are incubated in the epoxy blocking buffer for 1 hour at 50° C. with periodic shaking to deactivate epoxy binding sites. Next, slides are rinsed and blocked with PBS with 1% OVA at 25° C. for one hour. Serum samples with polyclonal antibodies (1:1000) or purified monoclonal antibodies (1 ug/mL), are diluted in PBS with 1% OVA and added to the glycan array for one hour at 25° C. After extensive washing, binding of antibodies are detected by incubating glycan microarray slides with Cy3-conjugated anti-mouse IgG (Jackson Immunoresearch, West Grove, Pa.) for one hour. Slides are then washed extensively, dried and scanned with a Genepix 4000B scanner (Laser at 100%; gain at 350; 10 μm pixels). […]

[2] = Immunohistochemical staining of normal and tumor tissues (TMA); conditions: tissue microarray slides
Method: The procedure for IHC staining includes the following steps: a). obtain tissue samples and prepare specimen slides; b). prepare tissue samples for IHC staining; i. perform antigen retrieval with Diva antigen retrieval solution for 30 minutes at 95° C.; or treat slides with 250 mU/mL neuraminidase in 50 mM sodium acetate, pH 5.5 for 2.5 hours at 37° C.; ii. rinse all treated slides twice with Tris-buffered saline auto-wash (TBS-AW); iii. apply Sniper protein block to all slides for 20 minutes to reduce non-specific binding and rinse twice in TBS-AW; c). perform antibody staining; i. incubate the pretreated slides with the primary antibody. For example, anti-STn antibody S3F is applied (10 or 30 ug/mL) for 60 minutes; ii. rinse twice in TBS-AW; iii. block endogenous peroxidase with peroxidase 1 for 10 minutes; iv. rinse twice with TBS-AW; v. incubate the slides with biotinylated goat anti-mouse IgG in DaVinci Green at 1:500 dilution for 30 minutes; vi. rinse twice with TBS-AW. d). develop the staining; i. add ABC Elite and incubate the slides for 30 minutes; ii. rinse twice with TBS-AW; iii. apply Sigma Fast DAB solution for 5 minutes followed by a rinse in distilled water; iv. counterstain and coverslip the slides for analysis. […]

[3] = test system: MDA-MB-231-STn Human Breast Tumor Xenograft; assay: MDA-MB-231-STn human breast cancer xenograft model, tumor volume; assay type: in vivo, mouse; conditions: 5 mg/kg i.p. once weekly
Source text: To evaluate antibody drug conjugates (ADCs) as single agents in an MDA-MB-231-STn Human Breast Tumor Xenograft model, 40 ICR SCID female mice age range 6-8 weeks were randomly separated into four separate groups, one vehicle control and three ADC treatments, then maintained individually with food/water ad libitum (see the following Table).
Animals were inoculated in the subcutaneous right flank with 5×10^6 breast tumor cells (MDA-MB-231-STn) in matrigel, mean tumor size was 175-225 mm^3 at study initiation. Animals were given either vehicle or antibody drug conjugates (5 mg/kg) by intraperitoneal injection once weekly. Tumor volume and percent body weight change were determined once weekly until study termination. The study was terminated when the tumor in the vehicle control animal reached a mean tumor weight ≥1500 mm^3. SE refers to “standard error.”

E3-STn tumors = assay: E3-STn murine breast tumor allograft model, tumor volume; assay type: in vivo, mouse; conditions: for Average Tumor Volume (mm^3): 7G9-1A8 25 mg/kg i.p. twice weekly for 3 weeks, Paclitaxel daily for 5 days
Method: 3 test articles were evaluated during the study.
Standard deviation values are listed in parenthesis.

B1: 18C7: anti-STn mouse monoclonal, IgG2c κ, from mouse #4436; VH SEQ ID NO: 4, VL SEQ ID NO: 5 (antibody, V domains shown)
VH: QVTLKESGPGILQPSQTLSLTCSFSGFSLSTFGMGVGWIRQPSGKGLEWLAHIWWDDDKYYNPALKSRLTISKDTSKNQVFLKIANVDTADTATYYCARIAYYYGSERDYWGQGTTLTVSS
VL: QIVLTQSPAIMSASPGEKVTMTCSASSSISYMHWYHQKPGTSPKRWIYDTSKLASGVPARFSGSGSGTSYSLTISSMEAEDAATYYCHQRSSYTFGGGTKLEIKR
For B1, the “mean fluorescence intensity, Neu5,9Ac2-α2,6-GalNAc” value [1] was “about 4,500”.

B2: S3F: 3F1 variable domains combined with IgG2a constant domains; heavy chain SEQ ID NO: 63, light chain SEQ ID NO: 64 (antibody)
heavy: QVQLQQSDAELVKPGASVKISCKASGYTFTDHAIHWVKQKPEQGLDWIGYISPGNGDIKYNEKFKDKVTLTADKSSSTACMHLNSLTSEDSAVYFCKRSLLALDYWGQGTTLTVSSAKTTAPSVYPLAPVCGDTTGSSVTLGCLVKGYFPEPVTLTWNSGSLSSGVHTFPAVLQSDLYTLSSSVTVTSSTWPSQSITCNVAHPASSTKVDKKIEPRGPTIKPCPPCKCPAPNLLGGPSVFIFPPKIKDVLMISLSPIVTCVVVDVSEDDPDVQISWFVNNVEVHTAQTQTHREDYNSTLRVVSALPIQHQDWMSGKEFKCKVNNKDLPAPIERTISKPKGSVRAPQVYVLPPPEEEMTKKQVTLTCMVTDFMPEDIYVEWTNNGKTELNYKNTEPVLDSDGSYFMYSKLRVEKKNWVERNSYSCSVVHEGLHNHHTTKSFSRTPGK
light: DIVMTQSHKFMSTSVGDRVSITCKASQDVGTNIAWYQQKPGRSPKVLIYSASTRHTGVPDRFTGSGSGTDFTLTISNVQSEDLTDYFCQQYSSFPLTFGVGTKLELKRADAAPTVSIFPPSSEQLTSGGASVVCFLNNFYPKDINVKWKIDGSERQNGVLNSWTDQDSKDSTYSMSSTLTLTKDEYERHNSYTCEATHKTSTSPIVKSFNRNEC
With B2 the “IHC staining pattern, cancerous tissues” value [2] was “STn was present in most cancerous tissues”, the “IHC staining pattern, normal tissues” value [2] was “STn expression was rare in normal tissues” and the “total tumor volume course” value ([3]; ICR SCID mice) was “increased at all time points”. The “Tumor Volume” value ([3]; day 1) was 178.6 mm^3, the “Tumor Volume” value ([3]; day 4) was 194.3 mm^3 and the “Tumor Volume” value ([3]; day 8) was 244.9 mm^3. For the same molecule, the “Tumor Volume” value ([3]; day 10) was 301.0 mm^3, the “Tumor Volume” value ([3]; day 15) was 445.1 mm^3 and the “Tumor Volume” value ([3]; day 18) was 609.7 mm^3. The “Tumor Volume” value ([3]; day 23) was 775.4 mm^3 and the “Tumor Volume” value ([3]; day 25) was 972.7 mm^3.

B3: 7G9: anti-STn mouse monoclonal, IgG2b κ, from mouse #4407; VH SEQ ID NO: 12, VL SEQ ID NO: 9 (antibody, V domains shown)
VH: QVQLKESGPGLVAPSQNLSITCTVSGFSLTSYGVNWVRQPPGKGLEWLGVIWGDGSTNYHSALISRLIISKENSKSQVFLKLNSLQTNDTATYYCTKGFVYWGQGTLVTVSA
VL: QIVLTQSPAIMSASPGEKVTMTCSASSSVSYMHWYQQKSGTSPKRWIFDTSKLASGVPARFSGSGSGTSYSLTISSMEAEDAATYYCQQWSSNLLTFGAGTKLELK
With B3 the “average tumor volumes as compared to Paclitaxel and vehicle control” value (E3-STn tumors; 25 mg/kg i.p. twice weekly for 3 weeks) was “greatly reduced”, the “Average Tumor Volume (mm^3)” value (E3-STn tumors; day 1) was 112.4 mm^3 and the “Average Tumor Volume (mm^3)” value (E3-STn tumors; day 4) was 148.7 mm^3. The “Average Tumor Volume (mm^3)” value (E3-STn tumors; day 6) was 161.9 mm^3, the “Average Tumor Volume (mm^3)” value (E3-STn tumors; day 8) was 152.8 mm^3 and the “Average Tumor Volume (mm^3)” value (E3-STn tumors; day 11) was 136.3 mm^3. For the same molecule, the “Average Tumor Volume (mm^3)” value (E3-STn tumors; day 13) was 118.4 mm^3, the “Average Tumor Volume (mm^3)” value (E3-STn tumors; day 15) was 105.1 mm^3 and the “Average Tumor Volume (mm^3)” value (E3-STn tumors; day 18) was 99.5 mm^3. The “Average Tumor Volume (mm^3)” value (E3-STn tumors; day 20) was 91.7 mm^3, the “Average Tumor Volume (mm^3)” value (E3-STn tumors; day 22) was 105.2 mm^3 and the “Average Tumor Volume (mm^3)” value (E3-STn tumors; day 26) was 102.8 mm^3. For the same molecule, the “Average Tumor Volume (mm^3)” value (E3-STn tumors; day 27) was 107.4 mm^3, the “Average Tumor Volume (mm^3)” value (E3-STn tumors; day 29) was 147.1 mm^3 and the “Average Tumor Volume (mm^3)” value (E3-STn tumors; day 32) was 160.6 mm^3. For the same molecule, the “Average Tumor Volume (mm^3)” value (E3-STn tumors; day 34) was 164.7 mm^3, the “Average Tumor Volume (mm^3)” value (E3-STn tumors; day 36) was 212.1 mm^3 and the “Average Tumor Volume (mm^3)” value (E3-STn tumors; day 39) was 206.6 mm^3. For the same molecule, the “Average Tumor Volume (mm^3)” value (E3-STn tumors; day 41) was 235.3 mm^3.
